Laboratory results published in paper PMC7382281 (Proceedings of the National Academy of Sciences of the …, 2020).
Where “and” joins values, the source holds several entries; their conditions need not be identical. Equal entries are not always repeated. Where two headings read alike, the source gives them in different places.

Legend:
[1] = target: AceR (Acinetobacter chlorhexidine efflux protein regulator) (Acinetobacter baumannii, UniProt P0DUU5); test: isothermal titration calorimetry (AceR^CTD); native MS titration (AceR^FL); type: binding
From the text: isothermal titration calorimetry (AceR^CTD); native MS titration (AceR^FL) on AceR (Acinetobacter chlorhexidine efflux protein regulator) | we used isothermal titration calorimetry.

[2] = target: AceI (Acinetobacter chlorhexidine efflux protein I) (Acinetobacter baumannii, UniProt P0DUT9, E15Q); test: native mass spectrometry of purified mutant; type: binding
[3] = target: T1, AceI (Acinetobacter chlorhexidine efflux protein I) (Acinetobacter baumannii, UniProt P0DUT9); test: native mass spectrometry of purified protein in detergent; type: binding
T1 construct: amino acid residues 36 to 179, with a C-terminal hexahistidine tag

[4] = target: AceI (Acinetobacter chlorhexidine efflux protein I), truncated form, residues 36 to 179 with a C-ter (A. baumannii); test: native MS
[5] = target: AceI (Acinetobacter chlorhexidine efflux protein I), truncated form, residues 36 to 179, with C-term (A. baumannii); test: native MS
[6] = target: BRIL (apocytochrome b562RIL)-fusion construct of full-length AceI (residues 1 to 179) (A. baumannii) (UniProt P0DUT9); test: native MS
[7] = target: BRIL (apocytochrome b562RIL)-fusion construct of truncated AceI (residues 36 to 179) (A. baumannii); test: native MS
[8] = target: BRIL (apocytochrome b562RIL)-fusion of full-length AceI (residues 1 to 179) (A. baumannii) (UniProt P0DUT9); test: native MS
[9] = target: BRIL (apocytochrome b562RIL)-fusion of truncated AceI (residues 36 to 179) (A. baumannii); test: native MS
[10] = target: E15Q AceI mutant (A. baumannii); test: native MS
native MS [11] = target: the molecule itself; test: native MS
native MS [12] = target: the molecule itself; test: native MS; remark: listed apart in the source
native MS [13] = target: the molecule itself; test: native MS; remark: listed apart in the source
[14] = target: T2, AceRFL (BRIL-AceR full length) (Acinetobacter baumannii, UniProt P0DUU5 1-297); test: native MS; no chlorhexidine; one RS2 per dimer; native MS; 200 mM ammonium acetate, pH 8.0 (AceRFL-DNA); temperature not stated; conditions: protein: recombinant; tags: N-terminal BRIL (apocytochrome b562RIL) fusion; 6xHis; chain copies: 2; blunt
T2 sequence: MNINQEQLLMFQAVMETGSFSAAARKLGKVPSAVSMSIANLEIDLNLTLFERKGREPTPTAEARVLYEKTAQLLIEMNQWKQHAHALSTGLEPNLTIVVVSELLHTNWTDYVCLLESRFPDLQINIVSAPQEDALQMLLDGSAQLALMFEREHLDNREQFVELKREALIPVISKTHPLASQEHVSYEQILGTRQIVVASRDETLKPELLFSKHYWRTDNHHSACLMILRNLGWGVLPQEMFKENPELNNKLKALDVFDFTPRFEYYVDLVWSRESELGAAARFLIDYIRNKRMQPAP

[15] = target: T2, AceRFL (BRIL-AceR full length); test: native MS; 2 uM AceRFL, 2 uM RS1, no chlorhexidine; one RS1 per dimer; native MS; 200 mM ammonium acetate, pH 8.0 (AceRFL-DNA); temperature not stated; conditions: protein: recombinant; tags: N-terminal BRIL (apocytochrome b562RIL) fusion; 6xHis; chain copies: 2; blunt

[H]/N=C(\N/C(=N/[H])NCCCCCCNC(=N)NC(=N)Nc1ccc(Cl)cc1)Nc1ccc(Cl)cc1 [chlorhexidine]
Kd [1]: ~16 µM
native mass spectrometry of purified mutant [2]: E15Q mutant and found that the binding of chlorhexidine also increased the dimer population of the mutant
native mass spectrometry of purified protein in detergent [3]: when tested with chlorhexidine, we observed multiple low-occupancy binding of up to three chlorhexidine molecules

AceI (Acinetobacter chlorhexidine efflux protein I), truncated form, residues 36 to 179 with a C-ter (domain or fragment)
Kd [4]: 5.69 µM
stoichiometry N [4]: 2

AceI (Acinetobacter chlorhexidine efflux protein I), truncated form, residues 36 to 179, with C-term (domain or fragment)
Kd [5]: 0.92 µM
stoichiometry N [5]: 2

BRIL (apocytochrome b562RIL)-fusion construct of full-length AceI (residues 1 to 179) (from UniProt P0DUT9 1-144) (natural protein)
stoichiometry N [6]: 2

BRIL (apocytochrome b562RIL)-fusion construct of truncated AceI (residues 36 to 179) (domain or fragment)
stoichiometry N [7]: 2

BRIL (apocytochrome b562RIL)-fusion of full-length AceI (residues 1 to 179) (from UniProt P0DUT9 1-144) (natural protein)
stoichiometry N [8]: 2

BRIL (apocytochrome b562RIL)-fusion of truncated AceI (residues 36 to 179) (domain or fragment)
stoichiometry N [9]: 2

E15Q AceI mutant (domain or fragment)
Kd [10]: 17.5 µM and 18.4 µM

B1: AceR^FL: full-length AceR (Acinetobacter chlorhexidine efflux protein regulator) with a Bril fusion at the N terminus (natural protein)
chain: MNINQEQLLMFQAVMETGSFSAAARKLGKVPSAVSMSIANLEIDLNLTLFERKGREPTPTAEARVLYEKTAQLLIEMNQWKQHAHALSTGLEPNLTIVVVSELLHTNWTDYVCLLESRFPDLQINIVSAPQEDALQMLLDGSAQLALMFEREHLDNREQFVELKREALIPVISKTHPLASQEHVSYEQILGTRQIVVASRDETLKPELLFSKHYWRTDNHHSACLMILRNLGWGVLPQEMFKENPELNNKLKALDVFDFTPRFEYYVDLVWSRESELGAAARFLIDYIRNKRMQPAP
notes: source: E. coli C43(DE3), purified (HisTrap-HP)
stoichiometry N (native MS [11]): 4
stoichiometry N (native MS [12]): 2 and 4

B2: AceR^FL: full-length AceR (Acinetobacter chlorhexidine efflux protein regulator) with a Bril fusion at the N terminus (natural protein)
chain: MNINQEQLLMFQAVMETGSFSAAARKLGKVPSAVSMSIANLEIDLNLTLFERKGREPTPTAEARVLYEKTAQLLIEMNQWKQHAHALSTGLEPNLTIVVVSELLHTNWTDYVCLLESRFPDLQINIVSAPQEDALQMLLDGSAQLALMFEREHLDNREQFVELKREALIPVISKTHPLASQEHVSYEQILGTRQIVVASRDETLKPELLFSKHYWRTDNHHSACLMILRNLGWGVLPQEMFKENPELNNKLKALDVFDFTPRFEYYVDLVWSRESELGAAARFLIDYIRNKRMQPAP
notes: source: expressed in high yields, purified
stoichiometry N (native MS [13]): 2 and 4

B3: AceR^CTD: inducer-binding domain of AceR (amino acid residues 90 to 297) (domain or fragment)
chain: GLEPNLTIVVVSELLHTNWTDYVCLLESRFPDLQINIVSAPQEDALQMLLDGSAQLALMFEREHLDNREQFVELKREALIPVISKTHPLASQEHVSYEQILGTRQIVVASRDETLKPELLFSKHYWRTDNHHSACLMILRNLGWGVLPQEMFKENPELNNKLKALDVFDFTPRFEYYVDLVWSRESELGAAARFLIDYIRNKRMQPAP
notes: as for B1
stoichiometry N (native MS [12]): 2

B4: AceR^CTD: inducer-binding domain of AceR (amino acid residues 90 to 297) (domain or fragment)
chain: GLEPNLTIVVVSELLHTNWTDYVCLLESRFPDLQINIVSAPQEDALQMLLDGSAQLALMFEREHLDNREQFVELKREALIPVISKTHPLASQEHVSYEQILGTRQIVVASRDETLKPELLFSKHYWRTDNHHSACLMILRNLGWGVLPQEMFKENPELNNKLKALDVFDFTPRFEYYVDLVWSRESELGAAARFLIDYIRNKRMQPAP
stoichiometry N (native MS [13]): 2

B5: RS2 (site 2, 34 bp) (dsDNA)
DNA 1: ACTCTTCAACAAGAACTAATTATAAGTAGACAGT
DNA 2: ACTGTCTACTTATAATTAGTTCTTGTTGAAGAGT
binding result [14]: binds

B6: RS1 (site 1, 22 bp) (dsDNA)
DNA 1: TTTTTTAACTTTCTTGGACTAA
DNA 2: TTAGTCCAAGAAAGTTAAAAAA
binding result [15]: binds
